Test results from patent publication US20260125711, “RNA-GUIDED NUCLEASES AND ACTIVE FRAGMENTS AND VARIANTS THEREOF AND METHODS OF USE” (Life Edit Therapeutics, Inc., published 2026).
Positions count from the first letter of the chain named. Names may count otherwise.

Tests used:
Settings in all cases: tags: N-terminal SV40 NLS and 3xFLAG; C-terminal nucleoplasmin NLS
LPG10204 = target: T1, LPG10204; assay: cell_activity; PAM SEQ ID NOs 146, 147; HEK293T
T1 chain: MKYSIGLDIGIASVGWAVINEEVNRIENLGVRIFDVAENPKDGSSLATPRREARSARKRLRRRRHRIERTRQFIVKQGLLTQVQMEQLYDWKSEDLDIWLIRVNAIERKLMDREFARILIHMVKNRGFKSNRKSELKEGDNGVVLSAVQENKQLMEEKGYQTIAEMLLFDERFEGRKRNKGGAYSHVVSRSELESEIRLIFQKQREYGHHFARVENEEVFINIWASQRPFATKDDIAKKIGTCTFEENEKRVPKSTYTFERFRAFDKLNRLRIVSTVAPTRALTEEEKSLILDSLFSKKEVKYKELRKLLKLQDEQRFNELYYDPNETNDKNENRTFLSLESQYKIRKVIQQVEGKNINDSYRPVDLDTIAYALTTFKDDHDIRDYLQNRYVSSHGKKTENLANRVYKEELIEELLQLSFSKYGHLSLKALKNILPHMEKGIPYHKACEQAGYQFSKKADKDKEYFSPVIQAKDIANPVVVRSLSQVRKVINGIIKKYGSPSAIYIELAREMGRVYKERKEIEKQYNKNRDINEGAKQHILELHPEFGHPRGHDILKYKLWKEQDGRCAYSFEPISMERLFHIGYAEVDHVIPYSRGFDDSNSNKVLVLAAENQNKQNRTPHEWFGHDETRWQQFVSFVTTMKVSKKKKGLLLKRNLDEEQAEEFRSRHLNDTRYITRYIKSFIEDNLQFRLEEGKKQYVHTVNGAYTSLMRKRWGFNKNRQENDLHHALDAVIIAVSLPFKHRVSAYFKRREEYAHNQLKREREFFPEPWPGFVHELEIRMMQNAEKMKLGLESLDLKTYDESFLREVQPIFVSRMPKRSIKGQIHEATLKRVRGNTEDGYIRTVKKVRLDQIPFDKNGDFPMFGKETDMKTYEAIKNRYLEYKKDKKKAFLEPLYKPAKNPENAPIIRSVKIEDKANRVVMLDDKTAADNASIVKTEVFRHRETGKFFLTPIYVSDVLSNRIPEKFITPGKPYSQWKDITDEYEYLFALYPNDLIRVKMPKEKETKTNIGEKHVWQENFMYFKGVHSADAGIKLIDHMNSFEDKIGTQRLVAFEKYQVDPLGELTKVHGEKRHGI
Description: (§1) Guide RNAs targeting several genes were designed for robustness testing of multiple RGNs in HEK293T cells by plasmid delivery. These guides were tested under optimal editing conditions for HEK293T cells in a 96-well plate which involved seeding 10,000-15,000 cells on day 1, lipofection using Lipofectamine 3000 on day 2, and genomic DNA extraction on day 4. […] Then, 0.3 μl of Lipofectamine 3000 diluted in Opti-MEM was added to the plasmid mixture and incubated for 15 mins before adding to cells.

LPG10208 = target: T2, LPG10208; assay: cell_activity; PAM SEQ ID NOs 146, 147; HEK293T
T2 chain: T1 chain with Q450E, S467L
Description: as §1

LPG10167 = target: T3, LPG10167 (Bacillus toyonensis); assay: cell_activity; PAM nnnnCC; HEK293T
T3 chain: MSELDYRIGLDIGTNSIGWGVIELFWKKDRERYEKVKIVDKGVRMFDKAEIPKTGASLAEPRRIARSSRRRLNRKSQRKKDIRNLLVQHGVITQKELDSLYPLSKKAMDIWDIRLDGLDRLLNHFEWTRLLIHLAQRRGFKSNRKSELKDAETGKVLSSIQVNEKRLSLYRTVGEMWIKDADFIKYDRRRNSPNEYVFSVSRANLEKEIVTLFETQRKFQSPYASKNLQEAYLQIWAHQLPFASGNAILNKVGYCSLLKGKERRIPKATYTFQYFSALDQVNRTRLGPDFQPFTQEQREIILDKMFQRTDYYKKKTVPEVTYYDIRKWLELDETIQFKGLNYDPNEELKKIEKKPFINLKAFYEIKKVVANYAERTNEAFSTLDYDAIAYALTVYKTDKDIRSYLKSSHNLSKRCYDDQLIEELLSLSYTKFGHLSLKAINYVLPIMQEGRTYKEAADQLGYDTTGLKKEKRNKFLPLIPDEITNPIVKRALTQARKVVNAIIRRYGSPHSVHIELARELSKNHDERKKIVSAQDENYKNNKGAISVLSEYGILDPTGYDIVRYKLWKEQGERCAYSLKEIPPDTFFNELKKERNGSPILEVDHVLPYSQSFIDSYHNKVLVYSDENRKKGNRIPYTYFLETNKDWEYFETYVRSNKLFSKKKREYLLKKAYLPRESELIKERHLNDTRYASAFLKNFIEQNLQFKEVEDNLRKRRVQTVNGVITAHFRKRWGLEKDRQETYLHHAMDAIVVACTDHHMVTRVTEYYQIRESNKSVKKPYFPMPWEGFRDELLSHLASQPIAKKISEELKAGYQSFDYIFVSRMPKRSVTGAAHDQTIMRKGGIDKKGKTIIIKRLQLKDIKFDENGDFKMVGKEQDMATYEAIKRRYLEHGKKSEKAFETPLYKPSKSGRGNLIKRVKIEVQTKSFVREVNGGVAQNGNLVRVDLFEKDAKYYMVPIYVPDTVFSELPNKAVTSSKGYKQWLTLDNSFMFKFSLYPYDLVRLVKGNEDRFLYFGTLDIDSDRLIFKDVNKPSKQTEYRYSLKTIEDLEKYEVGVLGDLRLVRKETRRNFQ
Description: (§2) Several of the constructs described above were introduced into mammalian cells. One day prior to transfection, 1×10⁵ HEK293T cells (Sigma) were plated in 24-well dishes in Dulbecco's modified Eagle medium (DMEM) plus 10% (vol/vol) fetal bovine serum (Gibco) and 1% Penicillin-Streptomycin (Gibco). The next day when the cells were at 50-60% confluency, 500 ng of an RGN expression plasmid plus 500 ng of a single gRNA expression plasmid were co-transfected using 1.5 μL of Lipofectamine 3000 (Thermo Scientific) per well, following the manufacturer's instructions. After 48 hours of growth, total genomic DNA was harvested using a genomic DNA isolation kit (Machery-Nagel) according to the manufacturer's instructions.
(§3) Additionally, products from PCR #2 containing Illumina overhang sequences underwent library preparation following the Illumina 16S Metagenomic Sequencing Library protocol. Deep sequencing was performed on an Illumina Mi-Seq platform by a service provider (MOGene). Typically, 200,000 of 250 bp paired-end reads (2×100,000 reads) are generated per amplicon. […] Output alignments were hand-curated to confirm insertion and deletion sites as well as identify microhomology sites at the recombination sites. All experiments were performed in human cells.

LPG10168 = target: T4, LPG10168 (Bacillus toyonensis); assay: cell_activity; PAM nnnnCC; HEK293T
T4 chain: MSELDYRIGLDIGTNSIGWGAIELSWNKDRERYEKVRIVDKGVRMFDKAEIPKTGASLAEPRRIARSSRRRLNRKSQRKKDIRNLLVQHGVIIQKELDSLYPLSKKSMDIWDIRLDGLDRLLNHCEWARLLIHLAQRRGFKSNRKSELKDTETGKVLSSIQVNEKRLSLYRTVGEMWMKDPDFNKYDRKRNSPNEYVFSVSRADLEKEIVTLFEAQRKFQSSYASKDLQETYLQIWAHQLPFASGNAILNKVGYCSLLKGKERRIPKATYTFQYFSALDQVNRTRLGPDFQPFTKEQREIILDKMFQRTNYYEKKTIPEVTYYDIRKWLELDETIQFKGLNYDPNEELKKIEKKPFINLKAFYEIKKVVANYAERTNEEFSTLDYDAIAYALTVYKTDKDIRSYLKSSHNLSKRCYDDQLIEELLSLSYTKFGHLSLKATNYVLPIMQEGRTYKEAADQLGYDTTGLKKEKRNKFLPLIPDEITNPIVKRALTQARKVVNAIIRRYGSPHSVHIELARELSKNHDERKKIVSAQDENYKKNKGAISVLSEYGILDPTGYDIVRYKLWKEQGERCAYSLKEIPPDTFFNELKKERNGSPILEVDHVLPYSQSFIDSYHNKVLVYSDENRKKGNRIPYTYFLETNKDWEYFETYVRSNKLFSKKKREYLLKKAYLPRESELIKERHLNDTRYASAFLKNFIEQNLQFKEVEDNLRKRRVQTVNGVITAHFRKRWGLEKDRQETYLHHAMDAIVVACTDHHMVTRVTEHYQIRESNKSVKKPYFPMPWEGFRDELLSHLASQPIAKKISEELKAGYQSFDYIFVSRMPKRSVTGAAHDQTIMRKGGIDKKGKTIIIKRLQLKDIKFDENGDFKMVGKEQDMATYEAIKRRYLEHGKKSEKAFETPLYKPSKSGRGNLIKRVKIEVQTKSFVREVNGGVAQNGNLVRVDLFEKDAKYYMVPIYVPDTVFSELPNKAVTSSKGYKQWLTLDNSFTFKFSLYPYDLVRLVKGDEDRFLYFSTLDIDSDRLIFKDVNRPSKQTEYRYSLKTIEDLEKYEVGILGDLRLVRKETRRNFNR
Description: as §2, §3

B1: SGN005374 ; SGN005374 target (ssRNA ; dsDNA)
RNA: AGUAGCGCGAGCACAGCUAAGGCCAGCCAUAAUUCCUCCAAAGGGAGUUAUUAUGGUAAGGCAUUAUGCCGUGGCGUUGGGGAUCGCCUACAUCCGAUUAGAUCGGAUUCUCCCUAAAAAUGACUAACUUUGUUUAGUCAUUUUUUU
DNA 1: AGTAGCGCGAGCACAGCTAAGGCCA
DNA 2: TGGCCTTAGCTGTGCTCGCGCTACT
activity (LPG10204): 37.5 % indels

B2: SGN005374 ; SGN005374 target (LPG10208) (ssRNA ; dsDNA)
RNA: B1 RNA
DNA 1: AGTAGCGCGAGCACAGCTAAGGCCA
DNA 2: TGGCCTTAGCTGTGCTCGCGCTACT
activity (LPG10208): 47.2 % indels

B3: SGN005382 ; SGN005382 target (ssRNA ; dsDNA)
RNA: CUCUCUUUCUGGCCUGGAGGCUAUCGCCAUAAUUCCUCCAAAGGGAGUUAUUAUGGUAAGGCAUUAUGCCGUGGCGUUGGGGAUCGCCUACAUCCGAUUAGAUCGGAUUCUCCCUAAAAAUGACUAACUUUGUUUAGUCAUUUUUUU
DNA 1: CTCTCTTTCTGGCCTGGAGGCTATC
DNA 2: GATAGCCTCCAGGCCAGAAAGAGAG
activity (LPG10204): 25.5 % indels

B4: SGN005373 ; SGN005373 target (LPG10208) (ssRNA ; dsDNA)
RNA: UAGCCUCCAGGCCAGAAAGAGAGAGGCCAUAAUUCCUCCAAAGGGAGUUAUUAUGGUAAGGCAUUAUGCCGUGGCGUUGGGGAUCGCCUACAUCCGAUUAGAUCGGAUUCUCCCUAAAAAUGACUAACUUUGUUUAGUCAUUUUUUU
DNA 1: TAGCCTCCAGGCCAGAAAGAGAGAG
DNA 2: CTCTCTCTTTCTGGCCTGGAGGCTA
activity (LPG10208): 37.5 % indels

B5: SGN003667 ; B2M target SGN003667 (ssRNA ; dsDNA)
RNA: AAGAGAGAGUAGCGCGAGCACAGCUGUCAUAGUUCCAUUAAAGCCAUUAAAGAAUGGCUUUGAUGUUUCUAUGAUAAGGGUUUCGGCCCGUGGCGUUGGGGAUCGCCUGCCCAUUUCAAUGGGCUUCUCCCCAUUU
DNA 1: AAGAGAGAGTAGCGCGAGCACAGCT
DNA 2: AGCTGTGCTCGCGCTACTCTCTCTT
activity (LPG10167): 1.16 % indels

B6: SGN003669 ; B2M target SGN003669 (ssRNA ; dsDNA)
RNA: UGACAGCAUUCGGGCCGAGAUGUCUGUCAUAGUUCCAUUAAAGCCAUUAAAGAAUGGCUUUGAUGUUUCUAUGAUAAGGGUUUCGGCCCGUGGCGUUGGGGAUCGCCUGCCCAUUUCAAUGGGCUUCUCCCCAUUU
DNA 1: TGACAGCATTCGGGCCGAGATGTCT
DNA 2: AGACATCTCGGCCCGAATGCTGTCA
activity (LPG10168): 3.68 % indels

B7: SGN003668 ; B2M target SGN003668 (ssRNA ; dsDNA)
RNA: GGAGAGACUCACGCUGGAUAGCCUCGUCAUAGUUCCAUUAAAGCCAUUAAAGAAUGGCUUUGAUGUUUCUAUGAUAAGGGUUUCGGCCCGUGGCGUUGGGGAUCGCCUGCCCAUUUCAAUGGGCUUCUCCCCAUUU
DNA 1: GGAGAGACTCACGCTGGATAGCCTC
DNA 2: GAGGCTATCCAGCGTGAGTCTCTCC
activity (LPG10168): 0.61 % indels
